The record followed here is article PMC6806390.

The target in this assay is T1, Myoglobin from Horse Heart (Sigma M-9267) (horse), P68082.
T1 chain: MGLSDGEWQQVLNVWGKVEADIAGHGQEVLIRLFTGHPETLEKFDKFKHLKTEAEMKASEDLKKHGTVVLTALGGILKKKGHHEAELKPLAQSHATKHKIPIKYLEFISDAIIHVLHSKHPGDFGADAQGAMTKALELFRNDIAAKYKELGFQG
As to the kind of experiment: SDS-PAGE of the methanol precipitate. To be noted: remark: other sources report otherwise.

B1: Myoglobin from Horse Heart (Sigma M-9267), P68082 1-154 (natural protein)
chain: T1 chain
Broadly, the stoichiometry N is a count of units in the complex or per binding partner. As for B1, the stoichiometry N amounted to 3.
